The values that follow come from article PMC6412877, “Novel Site-Specific Fatty Chain-Modified GLP-1 Receptor Agonist with Potent Antidiabetic Effects” (Molecules, 2019).

Ends that are not written are not given here. fatty chain = not defined here

The target in the first assay is Human GLP-1R (human) (UniProt P43220).
Human GLP-1R (human), sequence (P43220 24-463): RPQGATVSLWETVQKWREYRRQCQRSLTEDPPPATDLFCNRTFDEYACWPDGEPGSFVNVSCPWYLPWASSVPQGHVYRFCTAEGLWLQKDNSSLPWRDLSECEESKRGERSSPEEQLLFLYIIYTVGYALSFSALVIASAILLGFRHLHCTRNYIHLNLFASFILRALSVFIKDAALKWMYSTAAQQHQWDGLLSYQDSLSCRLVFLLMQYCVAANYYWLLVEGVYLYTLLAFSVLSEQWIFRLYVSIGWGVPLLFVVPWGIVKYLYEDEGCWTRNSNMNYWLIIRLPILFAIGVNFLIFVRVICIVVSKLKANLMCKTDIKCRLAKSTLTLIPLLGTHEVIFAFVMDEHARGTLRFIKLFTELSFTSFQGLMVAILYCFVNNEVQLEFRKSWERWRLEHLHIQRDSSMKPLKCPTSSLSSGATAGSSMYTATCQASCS
Test: not given
The molecule FFYSSPSAYLEK(fatty chain)GGPSSGAPPPS (reading uncertain; also: fatty chain not given here) [PEP20] displayed an EC50 (nM), Human GLP-1R activation, in vitro cell assay of 0.062 nM and an Emax (%), Human GLP-1R activation, in vitro cell assay of 98%.
The matching figures for FFYSSPSAYLKTGGPSSGAPPPS [PEP15]: 0.451 nM and 78%.
The like results for FFYSSPSAYK(fatty chain)ETGGPSSGAPPPS (reading uncertain; also: fatty chain not given here) [PEP18] were, in that order, 0.391 nM and 78%.
In the case of FFYSSPSAYLEKGGPSSGAPPPS [PEP16], the EC50 (nM), Human GLP-1R activation, in vitro cell assay was determined as 0.111 nM and the Emax (%), Human GLP-1R activation, in vitro cell assay was found to be 92%.
Molecule FFYSSPSAK(fatty chain)LETGGPSSGAPPPS (reading uncertain; also: fatty chain not given here) [PEP17] yielded an EC50 (nM), Human GLP-1R activation, in vitro cell assay of 0.412 nM and an Emax (%), Human GLP-1R activation, in vitro cell assay of 79%.
FFYSSPSAYLK(fatty chain)TGGPSSGAPPPS (reading uncertain; also: fatty chain not given here) [PEP19] returned an EC50 (nM), Human GLP-1R activation, in vitro cell assay of 0.152 nM and an Emax (%), Human GLP-1R activation, in vitro cell assay of 89%.
Molecule FFYSSPSAYKETGGPSSGAPPPS [PEP14] came in with an EC50 (nM), Human GLP-1R activation, in vitro cell assay of 0.051 nM and an Emax (%), Human GLP-1R activation, in vitro cell assay of 105%.
Turning to FFYSSPSAKLETGGPSSGAPPPS [PEP13], the EC50 (nM), Human GLP-1R activation, in vitro cell assay was determined as 0.064 nM and the Emax (%), Human GLP-1R activation, in vitro cell assay stood at 96%.

In the next assay the target is Mouse GLP-1R (mouse) (UniProt O35659).
Mouse GLP-1R (mouse), sequence (O35659 22-463): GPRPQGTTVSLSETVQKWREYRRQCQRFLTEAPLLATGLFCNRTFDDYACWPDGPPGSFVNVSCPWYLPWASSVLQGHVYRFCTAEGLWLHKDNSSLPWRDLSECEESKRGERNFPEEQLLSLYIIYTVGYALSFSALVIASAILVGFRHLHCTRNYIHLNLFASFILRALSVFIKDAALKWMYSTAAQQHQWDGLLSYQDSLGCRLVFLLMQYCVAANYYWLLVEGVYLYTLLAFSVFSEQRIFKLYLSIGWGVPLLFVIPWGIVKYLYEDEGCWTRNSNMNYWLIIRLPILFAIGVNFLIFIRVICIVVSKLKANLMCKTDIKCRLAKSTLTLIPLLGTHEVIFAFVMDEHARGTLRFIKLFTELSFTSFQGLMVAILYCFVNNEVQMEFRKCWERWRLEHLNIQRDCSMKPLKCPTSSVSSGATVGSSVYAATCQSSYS
Test: not given
FFYSSPSAYLEK(fatty chain)GGPSSGAPPPS (reading uncertain; also: fatty chain not given here) [PEP20]: the EC50 (nM), Mouse GLP-1R activation, in vitro cell assay turned out to be 0.051 nM and the Emax (%), Mouse GLP-1R activation, in vitro cell assay worked out at 99%.
The like results for FFYSSPSAYLKTGGPSSGAPPPS [PEP15] were, in that order, 0.457 nM and 73%.
The matching figures for FFYSSPSAYK(fatty chain)ETGGPSSGAPPPS (reading uncertain; also: fatty chain not given here) [PEP18]: 0.351 nM and 78%.
For the molecule FFYSSPSAYLEKGGPSSGAPPPS [PEP16], the EC50 (nM), Mouse GLP-1R activation, in vitro cell assay was 0.101 nM and the Emax (%), Mouse GLP-1R activation, in vitro cell assay came out at 93%.
The matching figures for FFYSSPSAK(fatty chain)LETGGPSSGAPPPS (reading uncertain; also: fatty chain not given here) [PEP17]: 0.678 nM and 68%.
As to FFYSSPSAYLK(fatty chain)TGGPSSGAPPPS (reading uncertain; also: fatty chain not given here) [PEP19], the EC50 (nM), Mouse GLP-1R activation, in vitro cell assay stood at 0.212 nM and the Emax (%), Mouse GLP-1R activation, in vitro cell assay came out at 83%.
FFYSSPSAYKETGGPSSGAPPPS [PEP14] had an EC50 (nM), Mouse GLP-1R activation, in vitro cell assay of 0.034 nM and an Emax (%), Mouse GLP-1R activation, in vitro cell assay of 150%.
The like results for FFYSSPSAKLETGGPSSGAPPPS [PEP13] were, in that order, 0.051 nM and 110%.

The next assay deals with Glucagon-like peptide-1 receptor extracellular domain. Nature of the assay: SPR; Biacore 8K, according to the user's manual; who was immobilised and the conditions are not stated. Background: SPR reads the build-up and loss of mass on a sensor chip optically.
In general, Kd refers to the free concentration of one partner at which half of the binding sites on the other are occupied at equilibrium, for simple one-to-one binding. As to FFYSSPSAYLEKGGPSSGAPPPS [PEP16], the equilibrium dissociation constant (Kd) is 25 nM.

Another assay shares this target. Described as above. This is another data set of the same source.
Consider FFYSSPSAYLEK(fatty chain)GGPSSGAPPPS (reading uncertain; also: fatty chain not given here) [PEP20], for which the Kd stood at 25 nM.
Molecule FFYSSPSAYLKTGGPSSGAPPPS [PEP15] returned an equilibrium dissociation constant (Kd) of 33 nM.
KQYSSPTAWLVGGPSSGAPPPS [PEP09] had a Kd of 253 nM.
Still for that read-out and setting: the figure for FFYSSPSAYK(fatty chain)ETGGPSSGAPPPS (reading uncertain; also: fatty chain not given here) [PEP18] is 62 nM; for FFYSSPSAYLEKGGPSSGAPPPS [PEP16] it is 23 nM.
For the molecule FFYSSPSAK(fatty chain)LETGGPSSGAPPPS (reading uncertain; also: fatty chain not given here) [PEP17], the Kd is 158 nM.
Same read-out and setting: with FFYSSPSAYLK(fatty chain)TGGPSSGAPPPS (reading uncertain; also: fatty chain not given here) [PEP19] the figure was 91 nM; with FFYSSPSAYKETGGPSSGAPPPS [PEP14], 53 nM.
The molecule FFYSSPSAKLETGGPSSGAPPPS [PEP13] showed a Kd of 98 nM.
